Measurements as given in patent US20220010003A1 (Boehringer Ingelheim, published 2022).

Experiments:
[1] = biological target: T1, recombinant human periostin (human, UniProt Q15063 22-836); test: cell-based or functional assay
T1 sequence: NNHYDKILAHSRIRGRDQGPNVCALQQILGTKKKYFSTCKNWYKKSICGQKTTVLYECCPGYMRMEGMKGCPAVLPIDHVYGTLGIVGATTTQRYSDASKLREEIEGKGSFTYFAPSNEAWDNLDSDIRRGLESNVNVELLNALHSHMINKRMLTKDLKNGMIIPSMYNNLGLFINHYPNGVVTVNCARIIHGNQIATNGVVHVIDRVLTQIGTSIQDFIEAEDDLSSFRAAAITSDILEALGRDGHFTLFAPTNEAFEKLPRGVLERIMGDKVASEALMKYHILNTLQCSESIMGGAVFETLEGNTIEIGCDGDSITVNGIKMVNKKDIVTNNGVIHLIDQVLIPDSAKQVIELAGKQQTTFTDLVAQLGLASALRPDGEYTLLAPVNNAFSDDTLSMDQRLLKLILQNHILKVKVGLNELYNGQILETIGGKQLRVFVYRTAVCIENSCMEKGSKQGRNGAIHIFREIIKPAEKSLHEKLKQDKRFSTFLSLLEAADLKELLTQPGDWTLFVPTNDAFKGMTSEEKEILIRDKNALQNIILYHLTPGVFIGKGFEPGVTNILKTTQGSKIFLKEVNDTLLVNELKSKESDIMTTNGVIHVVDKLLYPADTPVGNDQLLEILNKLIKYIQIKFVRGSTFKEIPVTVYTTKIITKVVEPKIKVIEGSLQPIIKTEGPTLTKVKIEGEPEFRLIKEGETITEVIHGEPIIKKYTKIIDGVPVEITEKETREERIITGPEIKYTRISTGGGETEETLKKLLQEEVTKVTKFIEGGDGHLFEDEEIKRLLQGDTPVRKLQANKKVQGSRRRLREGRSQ

[2] = biological target: T2, recombinant mouse periostin (mouse, UniProt Q62009-2 24-811, limits assumed); test: BLI (Octet Red), NB0828 captured on anti-human Fc (AHC) biosensors, periostin titrated from 100 nM
T2 construct: also called MoPOSTN
T2 sequence (looked up): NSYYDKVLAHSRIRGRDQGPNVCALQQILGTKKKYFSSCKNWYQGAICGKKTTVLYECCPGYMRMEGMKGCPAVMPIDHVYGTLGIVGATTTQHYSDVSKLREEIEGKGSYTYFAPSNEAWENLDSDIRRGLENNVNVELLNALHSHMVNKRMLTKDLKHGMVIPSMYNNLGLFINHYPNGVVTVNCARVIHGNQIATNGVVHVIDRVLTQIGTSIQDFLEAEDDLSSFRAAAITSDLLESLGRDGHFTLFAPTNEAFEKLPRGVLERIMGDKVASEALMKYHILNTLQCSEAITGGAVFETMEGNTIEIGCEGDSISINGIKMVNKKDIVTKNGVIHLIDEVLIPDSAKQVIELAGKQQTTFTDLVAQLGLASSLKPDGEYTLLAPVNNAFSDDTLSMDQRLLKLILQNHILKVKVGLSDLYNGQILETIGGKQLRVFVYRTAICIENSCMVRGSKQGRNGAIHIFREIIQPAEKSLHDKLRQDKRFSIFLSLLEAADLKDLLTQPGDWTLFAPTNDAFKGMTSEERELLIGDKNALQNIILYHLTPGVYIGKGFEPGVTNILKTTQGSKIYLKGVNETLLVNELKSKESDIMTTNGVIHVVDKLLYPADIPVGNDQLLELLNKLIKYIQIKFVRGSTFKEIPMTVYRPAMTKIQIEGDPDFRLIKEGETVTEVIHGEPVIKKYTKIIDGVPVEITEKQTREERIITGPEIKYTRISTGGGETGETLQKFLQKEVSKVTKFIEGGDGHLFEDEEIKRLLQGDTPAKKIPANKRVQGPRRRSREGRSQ
Procedure: (§1) NB0828's binding affinity was determined across human, mouse, rat, and cyno species. NB0828 affinities were determined using the octet red system. Briefly, anti-human Fc (AHC) biosensors were used to capture NB0828, followed by association of titrating amounts of either recombinant human, mouse, rat, or cyno periostin (100 nM→0 nM; 1:2 dilutions). Recombinant human, mouse, and rat periostin was purchased commercially from R&D systems, whereas cyno periostin was made internally.

[3] = biological target: T1, recombinant human periostin; test: as above
Procedure: as §1

[4] = biological target: T3, recombinant cyno periostin (cyno, UniProt F6ZVK0 47-861 (rhesus entry)); test: as above
T3 construct: also called CynoPOSTN
T3 sequence: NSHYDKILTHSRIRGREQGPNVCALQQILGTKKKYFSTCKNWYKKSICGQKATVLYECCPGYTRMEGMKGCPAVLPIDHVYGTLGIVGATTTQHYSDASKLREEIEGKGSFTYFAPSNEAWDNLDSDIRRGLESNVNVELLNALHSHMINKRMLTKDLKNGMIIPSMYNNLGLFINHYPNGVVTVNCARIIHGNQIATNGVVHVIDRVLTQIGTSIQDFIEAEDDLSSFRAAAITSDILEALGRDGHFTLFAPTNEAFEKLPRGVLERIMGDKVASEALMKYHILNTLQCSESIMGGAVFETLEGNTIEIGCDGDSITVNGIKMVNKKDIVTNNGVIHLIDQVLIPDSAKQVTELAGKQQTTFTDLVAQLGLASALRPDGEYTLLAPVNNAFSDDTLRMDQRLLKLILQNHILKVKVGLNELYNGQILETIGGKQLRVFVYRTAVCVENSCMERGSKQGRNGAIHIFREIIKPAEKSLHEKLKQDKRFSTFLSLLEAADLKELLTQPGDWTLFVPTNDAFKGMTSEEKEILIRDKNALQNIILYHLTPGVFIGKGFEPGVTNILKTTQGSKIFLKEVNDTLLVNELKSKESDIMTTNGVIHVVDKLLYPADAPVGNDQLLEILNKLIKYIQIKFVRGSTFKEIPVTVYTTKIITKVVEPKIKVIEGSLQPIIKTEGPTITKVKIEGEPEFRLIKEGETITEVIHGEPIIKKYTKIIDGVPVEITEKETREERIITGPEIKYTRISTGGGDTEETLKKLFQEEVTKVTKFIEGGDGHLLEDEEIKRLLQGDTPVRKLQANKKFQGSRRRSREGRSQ
Procedure: as §1

[5] = biological target: T4, recombinant rat periostin (rat, UniProt A0A8I6AHK0 24-838); test: as above
T4 construct: also called RatPOSTN
Procedure: as §1

CAA IC50 [1]: 24300 pM
Kd [2]: 114 pM
koff [2]: 7.64e-05 s⁻¹
kon [2]: 670000 M⁻¹ s⁻¹
Kd [3]: 351 pM
koff [3]: 0.000246 s⁻¹
kon [3]: 702000 M⁻¹ s⁻¹
Kd [4]: 265 pM
koff [4]: 0.000211 s⁻¹
kon [4]: 794000 M⁻¹ s⁻¹
Kd [5]: 540 pM
koff [5]: 0.000393 s⁻¹
kon [5]: 727000 M⁻¹ s⁻¹
B1: NB0828 (antibody, V domains shown)
VH: QVQLVQSGAEVKKPGASVKVSCKASGYTFTSYGISWVRQAPGQGLEWMGWISAYNGNTNYAQKLQGRVTMTTDTSTSTAYMELRSLRSDDTAVYYCARDMLVVPFDYWGQGTLVTVSS
VL: QSVLTQSSSASGTPGQTVTVSCSGSSSDIGSNRVNWYQQLPGTAPKLLIYSNDQRPSGVPDRFSGSKSGTSASLAISGLQSADEADYYCAAWDDSLSTYVFGSGTKVTVL
